Measurements reported in patent US20150266954A1.
Each block holds one substance with its values, some of them ahead of it.

How the values were obtained:
[1] = target: mouse IL-21 (mouse) (UniProt Q9ES17); test: cell-based or functional assay
[2] = target: cynomolgus monkey IL-21 (cynomolgus monkey); test: cell-based or functional assay
[3] = target: rabbit IL-21 (rabbit); test: cell-based or functional assay
[4] = target: human IL-21 (human) (UniProt Q9HBE4); test: cell-based or functional assay
[5] = target: human IL-21 (human) (UniProt Q9HBE4); test: capture ELISA, biotin-IL-21 at 11 nM
[6] = target: human IL-21 (human) (UniProt Q9HBE4); test: capture ELISA, biotin-IL-21 at 33 nM
[7] = target: human IL-21 (human) (UniProt Q9HBE4); test: capture ELISA, biotin-IL-21 at 0.05 nM
[8] = target: human IL-21 (human) (UniProt Q9HBE4); test: capture ELISA, biotin-IL-21 at 0.14 nM
[9] = target: human IL-21 (human) (UniProt Q9HBE4); test: capture ELISA, biotin-IL-21 at 0.41 nM
[10] = target: human IL-21 (human) (UniProt Q9HBE4); test: capture ELISA, biotin-IL-21 at 1.2 nM
[11] = target: human IL-21 (human) (UniProt Q9HBE4); test: capture ELISA, biotin-IL-21 at 3.7 nM

Sequence of human IL-21 (human) (Q9HBE4 32-162): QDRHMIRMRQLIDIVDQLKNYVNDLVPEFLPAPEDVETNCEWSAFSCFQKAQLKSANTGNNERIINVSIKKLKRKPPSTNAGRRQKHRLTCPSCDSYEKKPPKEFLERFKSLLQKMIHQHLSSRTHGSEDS
Sequence of cynomolgus monkey IL-21 (cynomolgus monkey) (Q9HBE4 other isoform, or with tags, fused parts or gaps): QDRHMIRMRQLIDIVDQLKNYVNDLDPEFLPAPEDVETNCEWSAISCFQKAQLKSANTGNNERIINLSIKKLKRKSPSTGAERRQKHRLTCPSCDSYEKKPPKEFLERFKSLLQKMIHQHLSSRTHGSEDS
Sequence of rabbit IL-21 (rabbit) (chain, as listed by the source limits assumed): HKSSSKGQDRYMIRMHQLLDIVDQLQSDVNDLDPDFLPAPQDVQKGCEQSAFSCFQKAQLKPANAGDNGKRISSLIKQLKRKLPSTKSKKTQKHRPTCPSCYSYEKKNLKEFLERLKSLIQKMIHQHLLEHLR

IC50, IM9 pan-STAT-luciferase reporter assay, IL-21 at 66.67 pM [1]: 3530 pM
IC50, IM9 pan-STAT-luciferase reporter assay, IL-21 at 66.67 pM [2]: 3920 pM
IC50, IM9 pan-STAT-luciferase reporter assay, IL-21 at 66.67 pM [3]: 321 pM
% of maximum IL-21-induced B cell proliferation at 0.1 nM inhibitor (SDEV 15.8) [4]: 83%
% of maximum IL-21-induced B cell proliferation at 0.21 nM inhibitor (SDEV 10.8) [4]: 99%
% of maximum IL-21-induced B cell proliferation at 0.42 nM inhibitor (SDEV 6.43) [4]: 87%
% of maximum IL-21-induced B cell proliferation at 0.83 nM inhibitor (SDEV 6.33) [4]: 109%
% of maximum IL-21-induced B cell proliferation at 1.67 nM inhibitor (SDEV 12.6) [4]: 90%
% of maximum IL-21-induced B cell proliferation at 3.33 nM inhibitor (SDEV 13.7) [4]: 103%
% of maximum IL-21-induced B cell proliferation at 13.3 nM inhibitor (SDEV 13.8) [4]: 77%
% of maximum IL-21-induced B cell proliferation at 53.3 nM inhibitor (SDEV 6.2) [4]: 83%
IC50, IM9 pan-STAT-luciferase reporter assay, IL-21 at 66.67 pM [4]: 271 pM
Substance: human IL-21R:Fc chimera (R&D Systems, cat #991-R2) (from UniProt Q9HBE5 20-232) (Fc fusion)

OD at 560 nm [5]: 0.06 OD
OD at 560 nm [6]: 0.06 OD
OD at 560 nm [7]: 0.06 OD
OD at 560 nm [8]: 0.06 OD
OD at 560 nm [9]: 0.06 OD
OD at 560 nm [10]: 0.06 OD
% of maximum IL-21-induced B cell proliferation at 0.1 nM inhibitor (SDEV 5.34) [4]: 96%
% of maximum IL-21-induced B cell proliferation at 0.21 nM inhibitor (SDEV 10.3) [4]: 115%
% of maximum IL-21-induced B cell proliferation at 0.42 nM inhibitor (SDEV 17.1) [4]: 107%
% of maximum IL-21-induced B cell proliferation at 0.83 nM inhibitor (SDEV 15.3) [4]: 114%
% of maximum IL-21-induced B cell proliferation at 1.67 nM inhibitor (SDEV 4.78) [4]: 108%
% of maximum IL-21-induced B cell proliferation at 3.33 nM inhibitor (SDEV 18.7) [4]: 119%
% of maximum IL-21-induced B cell proliferation at 6.67 nM inhibitor (SDEV 17.9) [4]: 103%
% of maximum IL-21-induced B cell proliferation at 13.3 nM inhibitor (SDEV 6.21) [4]: 101%
% of maximum IL-21-induced B cell proliferation at 26.7 nM inhibitor (SDEV 11.2) [4]: 96%
fold increase of plasma cells (CD38 high, IgD low), donor 1, 26.7 nM antibody (IL-21 without antibody: 176) [4]: 174 fold
fold increase of plasma cells (CD38 high, IgD low), donor 2, 26.7 nM antibody (IL-21 without antibody: 114) [4]: 108 fold
fold increase of plasma cells (CD38 high, IgD low), donor 3, 26.7 nM antibody (IL-21 without antibody: 47) [4]: 47 fold
fold increase of plasma cells (CD38 high, IgD low), donor 4, 26.7 nM antibody (IL-21 without antibody: 68) [4]: 66 fold
fold increase of plasma cells (CD38 high, IgD low), donor 5, 26.7 nM antibody (IL-21 without antibody: 22) [4]: 23 fold
OD at 560 nm [11]: 0.06 OD
Substance: human IgG4 isotype control antibody
